Test in all cases: cell-based or functional assay
For assay [1], the target named is human pro-BMP7 protein variant F9 (human) (UniProt P18075).
In assay [2] the target is wild type human mature BMP7 (SEQ ID NO: 2) (human) (UniProt P18075).
In assay [3] the target is wild type human pro-BMP7 (human) (UniProt P18075).
Assay [4] concerns the target human mature BMP7 protein variant F9 (SEQ ID NO: 8) (human) (UniProt P18075).

Sequence of wild type human pro-BMP7 (human) (P18075 293-431, chain 1 of 2): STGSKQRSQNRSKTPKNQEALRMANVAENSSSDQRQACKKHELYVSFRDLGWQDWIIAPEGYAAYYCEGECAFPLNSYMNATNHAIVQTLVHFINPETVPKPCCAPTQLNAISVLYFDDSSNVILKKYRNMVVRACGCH
Sequence of wild type human pro-BMP7 (human) (P18075 other isoform, or with tags, fused parts or gaps, chain 2 of 2): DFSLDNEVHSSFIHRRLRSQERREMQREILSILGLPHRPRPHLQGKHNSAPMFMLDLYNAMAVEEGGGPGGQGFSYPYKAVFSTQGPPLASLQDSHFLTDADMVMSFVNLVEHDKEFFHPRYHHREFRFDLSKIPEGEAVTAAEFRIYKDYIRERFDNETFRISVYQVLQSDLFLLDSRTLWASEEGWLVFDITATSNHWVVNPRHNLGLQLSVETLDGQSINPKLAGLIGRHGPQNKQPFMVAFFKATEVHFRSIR
Sequence of wild type human mature BMP7 (SEQ ID NO: 2) (human) (P18075 293-431): as the sequence (P18075 293-431, chain 1 of 2) above
Sequence of Follistatin (P19883 30-344): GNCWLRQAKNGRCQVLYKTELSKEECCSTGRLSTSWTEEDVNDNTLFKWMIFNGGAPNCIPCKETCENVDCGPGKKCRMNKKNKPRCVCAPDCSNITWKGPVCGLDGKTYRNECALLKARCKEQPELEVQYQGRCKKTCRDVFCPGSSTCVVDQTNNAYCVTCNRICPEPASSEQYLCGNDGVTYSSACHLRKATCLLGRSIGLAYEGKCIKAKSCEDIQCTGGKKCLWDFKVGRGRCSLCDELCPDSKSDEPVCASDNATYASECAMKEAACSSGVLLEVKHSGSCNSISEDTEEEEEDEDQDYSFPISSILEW
Sequence of human mature BMP7 protein variant F9 (SEQ ID NO: 8) (human) (P18075 other isoform, or with tags, fused parts or gaps mutant): as the sequence (P18075 293-431, chain 1 of 2) above, with Y65G, I86L, F93V, N110G, Y128W counted along it
Sequence of human pro-BMP7 protein variant F9 (human) (P18075 other isoform, or with tags, fused parts or gaps mutant, chain 1 of 2): as the sequence (P18075 293-431, chain 1 of 2) above, with Y65G, I86L, F93V, N110G, Y128W counted along it
Sequence of human pro-BMP7 protein variant F9 (human) (P18075 other isoform, or with tags, fused parts or gaps mutant, chain 2 of 2): as the sequence (P18075 other isoform, or with tags, fused parts or gaps, chain 2 of 2) above

As for Chordin, in assay [1], the % inhibition, 0.1X molar excess of inhibitor (hepcidin promoter luciferase, Hep3B2 HepPro luc cells) is -5.9%; the % inhibition, 1X molar excess of inhibitor (hepcidin promoter luciferase, Hep3B2 HepPro luc cells) is -5.3%; the % inhibition, 10X molar excess of inhibitor (hepcidin promoter luciferase, Hep3B2 HepPro luc cells) was -1.3%; the % inhibition, 100X molar excess of inhibitor (hepcidin promoter luciferase, Hep3B2 HepPro luc cells) is -17.7%. Also, in assay [2], the % inhibition, 0.1X molar excess of inhibitor (hepcidin promoter luciferase, Hep3B2 HepPro luc cells) was -13.1%; the % inhibition, 1X molar excess of inhibitor (hepcidin promoter luciferase, Hep3B2 HepPro luc cells) was -9.2%; the % inhibition, 10X molar excess of inhibitor (hepcidin promoter luciferase, Hep3B2 HepPro luc cells) worked out at 21.3%; the % inhibition, 100X molar excess of inhibitor (hepcidin promoter luciferase, Hep3B2 HepPro luc cells) turned out to be 70.9%. In addition, in assay [3], the % inhibition, 0.1X molar excess of inhibitor (hepcidin promoter luciferase, Hep3B2 HepPro luc cells) was -15.1%; the % inhibition, 1X molar excess of inhibitor (hepcidin promoter luciferase, Hep3B2 HepPro luc cells) is -2.2%; the % inhibition, 10X molar excess of inhibitor (hepcidin promoter luciferase, Hep3B2 HepPro luc cells) came to 18.9%; the % inhibition, 100X molar excess of inhibitor (hepcidin promoter luciferase, Hep3B2 HepPro luc cells) was 76.5%. Further, in assay [4], the % inhibition, 0.01X molar excess of inhibitor (hepcidin promoter luciferase, Hep3B2 HepPro luc cells) came out at 3.7%; the % inhibition, 0.1X molar excess of inhibitor (hepcidin promoter luciferase, Hep3B2 HepPro luc cells) worked out at 6.8%; the % inhibition, 1X molar excess of inhibitor (hepcidin promoter luciferase, Hep3B2 HepPro luc cells) is 5.2%; the % inhibition, 10X molar excess of inhibitor (hepcidin promoter luciferase, Hep3B2 HepPro luc cells) was found to be 5.6%.

In the case of Chordin-like 2, in assay [1], the % inhibition, 0.1X molar excess of inhibitor (hepcidin promoter luciferase, Hep3B2 HepPro luc cells) was 3.5%; the % inhibition, 1X molar excess of inhibitor (hepcidin promoter luciferase, Hep3B2 HepPro luc cells) amounted to 2.4%; the % inhibition, 10X molar excess of inhibitor (hepcidin promoter luciferase, Hep3B2 HepPro luc cells) amounted to 8.8%; the % inhibition, 100X molar excess of inhibitor (hepcidin promoter luciferase, Hep3B2 HepPro luc cells) worked out at 24.9%. In assay [2], the % inhibition, 0.1X molar excess of inhibitor (hepcidin promoter luciferase, Hep3B2 HepPro luc cells) was -13.7%; the % inhibition, 1X molar excess of inhibitor (hepcidin promoter luciferase, Hep3B2 HepPro luc cells) was found to be 49%; the % inhibition, 10X molar excess of inhibitor (hepcidin promoter luciferase, Hep3B2 HepPro luc cells) came out at 69.5%; the % inhibition, 100X molar excess of inhibitor (hepcidin promoter luciferase, Hep3B2 HepPro luc cells) was found to be 71.9%. Moreover, in assay [3], the % inhibition, 0.1X molar excess of inhibitor (hepcidin promoter luciferase, Hep3B2 HepPro luc cells) turned out to be 8.9%; the % inhibition, 1X molar excess of inhibitor (hepcidin promoter luciferase, Hep3B2 HepPro luc cells) was 55.9%; the % inhibition, 10X molar excess of inhibitor (hepcidin promoter luciferase, Hep3B2 HepPro luc cells) is 87.5%; the % inhibition, 100X molar excess of inhibitor (hepcidin promoter luciferase, Hep3B2 HepPro luc cells) came out at 88.2%. Besides, in assay [4], the % inhibition, 0.01X molar excess of inhibitor (hepcidin promoter luciferase, Hep3B2 HepPro luc cells) was -1.5%; the % inhibition, 0.1X molar excess of inhibitor (hepcidin promoter luciferase, Hep3B2 HepPro luc cells) was -3.2%; the % inhibition, 1X molar excess of inhibitor (hepcidin promoter luciferase, Hep3B2 HepPro luc cells) is -1%; the % inhibition, 10X molar excess of inhibitor (hepcidin promoter luciferase, Hep3B2 HepPro luc cells) was 9%.

As for Follistatin, in assay [1], the % inhibition, 0.1X molar excess of inhibitor (hepcidin promoter luciferase, Hep3B2 HepPro luc cells) was -2.6%; the % inhibition, 1X molar excess of inhibitor (hepcidin promoter luciferase, Hep3B2 HepPro luc cells) was -4.3%; the % inhibition, 10X molar excess of inhibitor (hepcidin promoter luciferase, Hep3B2 HepPro luc cells) came to 11.7%; the % inhibition, 100X molar excess of inhibitor (hepcidin promoter luciferase, Hep3B2 HepPro luc cells) is 22.5%. Besides, in assay [2], the % inhibition, 0.1X molar excess of inhibitor (hepcidin promoter luciferase, Hep3B2 HepPro luc cells) is -16.6%; the % inhibition, 1X molar excess of inhibitor (hepcidin promoter luciferase, Hep3B2 HepPro luc cells) was -11.9%; the % inhibition, 10X molar excess of inhibitor (hepcidin promoter luciferase, Hep3B2 HepPro luc cells) was 21.1%; the % inhibition, 100X molar excess of inhibitor (hepcidin promoter luciferase, Hep3B2 HepPro luc cells) is 54.7%. Besides, in assay [3], the % inhibition, 0.1X molar excess of inhibitor (hepcidin promoter luciferase, Hep3B2 HepPro luc cells) was -10.4%; the % inhibition, 1X molar excess of inhibitor (hepcidin promoter luciferase, Hep3B2 HepPro luc cells) worked out at 5.9%; the % inhibition, 10X molar excess of inhibitor (hepcidin promoter luciferase, Hep3B2 HepPro luc cells) is 29.5%; the % inhibition, 100X molar excess of inhibitor (hepcidin promoter luciferase, Hep3B2 HepPro luc cells) amounted to 79.8%. In assay [4], the % inhibition, 0.01X molar excess of inhibitor (hepcidin promoter luciferase, Hep3B2 HepPro luc cells) was determined as 3.9%; the % inhibition, 0.1X molar excess of inhibitor (hepcidin promoter luciferase, Hep3B2 HepPro luc cells) stood at 10.6%; the % inhibition, 1X molar excess of inhibitor (hepcidin promoter luciferase, Hep3B2 HepPro luc cells) came out at 10%; the % inhibition, 10X molar excess of inhibitor (hepcidin promoter luciferase, Hep3B2 HepPro luc cells) was found to be 23.8%.

These data come from patent US20210115100A1.
